Results as given in the DeepSol protein solubility set.

Assay: soluble on expression in E. coli; label from the status in PepcDB or PDB records

| Sequence | soluble on expression in E. coli |
| --- | --- |
| SEKANALFETIFMENIMASPIAQTYMGIKQDYDKWDEIGDEADALELARTQKQLAEINQLDASKLDPQTRLSLALLTQNLNNDIKDYQWRYHTYPVNQMRGGHSMIASFLINQHQITDVSDAKAYISRLNGVPKRLTQLQKALEVRAEKGIIAPKFVFGYVISDSQNILKGAPFDKNEDSALLADFRKKVKALSIPETEKAPLIAEAEKALTSQVAPAYKALISYIKTLEAKADTRDGVWKLPDGDAFYNNALARTTTTDMTADEIHQLGLAEVERIHNEMRAIMKKVHFNGTLQAFFAFMRNNPQFYYPNTPEGKAAYLADATQLIDNMHSRLDEVFKVKPKAAMIVKQVESFREKSAGKAFYEQPAPDGSRPGSYYANLYDMKAMPKYQMEALAYHEGIPGHHMQIAISQELKDIPKFRKFGGYTAYIEGWGLYSESFPKEMGLYADPYSDFGRLAMELWRACRLVVDTGIHAKKWTREQGIAYYVDNTPNAKSDAVKMVERHIVMPSQATAYKVGMIKLLELRHKAEKQLGDKFDIRDFHTLILANGALPLDVLEEHVNQWIASVNK | not soluble |
| MAHHHHHHMALLQRVAQVMQEVAPLSLADHSWDNVGVLLESPAPNKSNAIMLTIDLTPEVMEECLEKNVEVILAYHPPLFRPVKRLTLQDPKQRIILQAASAGMSIYAPHTSLDAAEGGINDWLASLVAGDGAYTASPIQPTSSYAPNAAEATKATGMGRLVKLKEEVEFCSMVGSLKQQLGLATVRVALPDSWEPSHKVSSVALCAGSGTSVFRLLRLPVHVLLSGEMSHHDVLAATAAGQAVILCEHTNTERGFLKAVLQRTLQAKLEGTTVLVSDKDSDPLTAW | soluble |
| LAQEKNYDLPEGVMVYVIEGPFFFGAVETFQSALANTHTDPKVLIIRMRWVPFIDVTGLQAMEEIILNLQKRGVRVLLSEANPLVDAKLRKMGIVQLIGEQNYYKEFSQALDVCRINDSDRKSQPPFEVAKPLASVTQ | not soluble |
| MVKFLRDLVKIPGESAEEGNKIARAKAEMEKLGFDKIDIDPQGNLLGYMGSGEKLIAFDGHMDTVGIGEMSNWKFDPYDGYETETEIGGRGTSDQEGGIVSAIYGAKIMKDLGLLSEKYTALVTVTVQEEDCDGLCWQYIIKEDGIRPEFVVSTEPTDGGIYRGQRGRMEIKVDVKGVSCHGSAPERGDNAIYKMADILQDVRALNNNGDTESTAIRGLVRMLDPKYNPEWQEARFLGRGTVTVSQIFHSSPSRCAVADGCTVSLDRRMTAGETWESCLEEIRNLPAVKKYGDDVTVSMYNYDRPSYTDLTYEIECYFPTWVIPENHDVTKALMETHKNLYGETRKGSVETVEMREERPLLDKWTFSTNGVSIMGRNGIPCIGFGPGAEAQAHAPNEKTWKDDLVRCAAVYAALPTVYCG | not soluble |
| MAEIRVGTASWTDPTLLASGWYPPGVRNHPERRLRYYAQHFDTVEVDSTFYALPRLEVVRKWAERTPEGFLFHVKAYSAFTGHGLEASALPKDLQALLPQKEGHLSQREVPEEVVEEAWNRFFASLAPLREAGKLGYLHFGLPPWTEPKPRSFRYLERLAERTQGYLVAVEFRNPRWYTAWGFVKRELMRLGLAHVSVDAPPHPEAPPRVLEPTREVAVLRCHGRNAETWKGPHQKPYERFNWRYSEEELLDLAEATRTLAAQAERVFVIFNNNYGTQGVEAALGLKRLLGLGKPPWAEGPFS | soluble |
| MGSDKIHHHHHHMLNAKLLKLPTAAQQHHHEHHQIVVGVRGQAELSIDGSGACLDTWKACLVPTEARHDYCGDQQNHVLVINVDPFCAALSTPLHSDYDKLMRLFEKPRTVQMDNRIQGLVQFAAGEFDRSPDNRALHQHLAASILHCMAERIVDRPPVSSNRNSLNPEDIRRYIVGNLHRKITVQDLAGVACLSVSRFHEIFRQVTGTTPHQFLLQTRLDQAVGLLSSTSLSVSEISYRTGFSSQSALTNALRKHRGITPSRLQLNEHVA | not soluble |
| MSLGAKPFGEKKFIEIKGRRMAYIDEGTGDPILFQHGNPTSSYLWRNIMPHCAGLGRLIACDLIGMGDSDKLDPSGPERYAYAEHRDYLDALWEALDLGDRVVLVVHDWGSALGFDWARRHRERVQGIAYMEAIAMPIEWADFPEQDRDLFQAFRSQAGEELVLQDNVFVEQVLPGLILRPLSEAEMAAYREPFLAAGEARRPTLSWPRQIPIAGTPADVVAIARDYAGWLSESPIPKLFINAEPGALTTGRMRDFCRTWPNQTEITVAGAHFIQEDSPDEIGAAIAAFVRRLRPAHHHHHH | soluble |
| MAWSRVGDNIATHPLMSRLLTSCEFDHSLKNEAFGALVQLTTVSAAHLTDYIIEYGLMAQIAPGREKQLIDVLVDAGMLFRDEVDGRKVLRIVDDNELLHNRSRDEVEIDRRRAADKRNPALIPAVRYRDGDQCRWCGRTVDWRDRKGGRAATIDSLNEHRESTVDTLVVACKSCNSKRGAGEELQLLPTPTREKVHYTDHTIDWINRSEWAQHEGIHLEPRQTHLDIGQQITTPAAPSEQQQVGQAAAPLEAAARAHRAAPDVEAPFVSDPLDEAPDWVKQSLVNDHGQAAAPLMAAAPREHDHAPAAPSEQQQVGQAAAPLEAAARAHRAAPDVEAPPQHHVDNETVKPSTDLEQITDRWGDGSRSLGTGRDGNGQVGTARRRRRRRRGGRGTGRNKAHG | not soluble |
| MAQRRESLNMGEFAEEAIIVEEVAAPKRVNHFIEANTQEVTLQHLQQDCIIPSFASMEETISHQSFIGAVVDAAKDYFHGEQFDMPEIRISHPINGRIPSALGKKASELTDEEKTLFYQRMCFCFEIPSIVHDEYGNRLALSIGGVRAYNEINLYSKKSVERFKIFIGFRNRVCSNLMLTTDGLQDKIEVLSIQELYAAALNLFHAYNPSKDLHLLRTLGQMSISTSEFCQIIGRMRLYQALTPNQQKRLPRLLLGDSQINAACRAFVSDANFKSTGDSITGWQLLNLLNGSVKSSYIDNFLERNLNCTEFVQGIQRAKLGDSEYAWFLG | not soluble |
| MGSDKIHHHHHHVSQLSPWQHYQQDLKRDDFSHDLAQEQAVTALQRVYEELIAATKPASGIAALLKAVTGKNKRASVQGLYLWGGVGRGKTYLMDTFFDALPTEDKLRAHFHRFMHQLHHDLGELKGVQDPLLTIAKKMAKQYQVICFDEFFVSDITDAMLLGTLFQALFKEGVVLVATSNIIPDELYKNGLQRARFLPAIALINQHCQILNVDSGIDYRLRTLEQAEIYHHPLDAQADVNLLQYFKQLAPESEVFTHALDIDGRKIAIRQQSQGVLLVDFRALCDGPRSQRDYMEIARLYHTVLLSGLVQMGAQQTGDDIARRFLAVVDEFYERNVKLIISAQVSLEQIYTQGQLDFEFRRCRSRLIEMQSHDYLALEHLP | not soluble |
| MNKHSGIDFKQLNFLTKLNENHSGELWKGRWQGNDIVVKVLKVRDWSTRKSRDFNEECPRLRIFSHPNVLPVLGACQSPPAPHPTLITHWMPYGSLYNVLHEGTNFVVDQSQAVKFALDMARGMAFLHTLEPLIPRHALNSRSVMIDEDMTARISMADVKFSFQSPGRMYAPAWVAPEALQKKPEDTNRRSADMWSFAVLLWELVTREVPFADLSNMEIGMKVALEGLRPTIPPGISPHVSKLMKICMNEDPAKRPKFDMIVPILEKMQDK | soluble |
| MGSDKIHHHHHHMRYVIVGSGPAGLNAIEAIREVDKEGEILLITAEKYVGYSRPLITYLLGRKVTEEKMYYRTEDYLREMRVDIKPATRVEKVIPEEKTVVTDSGEEIRYDKLLIATGGKPFVPNIEGLTGKKGVFTFTTWEDEEKVEKYIEENDVKEAVVLGGGLIGLKTTEALMELGVKVTIVELADRILSVTFDRKASEIITEALKKEGCSVITNDTVVKVNGDDTVSSVVLKSGKEIPTKLLVIAIGVKPNVEFLKDSGIEINRGIVVNEKMETNVEGVYAAGDCTEFYDLIDGQRKTIAIWPVAVAQGRVAGYNMAGKNVRYPGGIPMNSVELAGIPTISVGHSNVEDGGYEILTFEEGNTYKKMVLKDNRLVGAILVNDIDRAGIYTGLILQKLDVSSFKDRLLDENFGLVYLPKEFRKKMLEGEIKIWLE | not soluble |
| KLSNGMNGSEAAVHEVPEYTGPLGTSGEEPAPTVEKPEYTGPLGTSGEEPAPTVEKPEYTGPLGTAGEEAAPTVEKPEFTGGVNGTEPAVHEIAEYKGSDSLVTLTTKEDYTYKAPLAQQALPETGNKESDLLASLGLTAFFLGLFTLGKKREQ | not soluble |
| MGSDKIHHHHHHMNKIAPAEIASMLNDWYLAIKKHEVEESSRLFEEVKPLLDDMEEDQEVLAYFSLLELRHKVLLHEARGQGFQHEEPSHMNATSDMLKYYFFLFEGMYEAYKNNYDIAIGLYKDAEQYLDNIPDPIEKAEFHLKVGKLYYKLGQNIVSLNHTRQAVKTFREETDYKKKLASALITMSGNFTEMSQFEEAEAYLDEAIRITSELEDHFFEAQLLHNFGLLHAQSGKSEEAVSKLEEALQNDEYARSAYYYHSAYLLIRELFKIKKKEQALSYYQDVKEKLTAEPNRICEAKIDILYAIYAEGGHAETFHLCKQHMDDLLSEKEYDSVRELSILAGERYRELELYKEAAHFFYEALQIEELIKRTEVI | not soluble |
| MIDVLLGADDGSLAFVPSEFSCSPGCKIVFKNNAGFPHNIVFDEDSIPSGVDASKISMSEEDLLNAKGETFEVALSNKGEYSFYCSPHQGAGMVGKVTVN | soluble |
| MKVKCEECGETYTLNDGEDPDDYICECGGKLKRETFLRRTALGVGVFSIP | not soluble |
| MGHHHHHHSHMISSNIREARTVILPRLMLEITSNGTLTVASHTPIFQKLSLLDLPSLTAHLKTKLSGSMFKGFLFATLCETEDHVTTLDMHPHVFEKRLVLYNPRNTCNKELCALISMVENLMDCDPKLPLSIYMRGKRLFQKNPGKDSCFLFKGLSTLISTHFAVYHPNFTVNDELLLPPLLAYKMHSTIEGIDEVSKGLLKAIYLDSYRMDNNIDDFQNPAGTFTLLCLPTIFTKHLTVPNVLILIKRAGLMYEAIDNIIL | not soluble |
| SEQKYEEDIQKLQQEIEMLEAEQEETLRSIFVQHGDRLQQGVKSACEERGGGGAQQHTLSKLITEVRELEKDLRRQTEINGITLNECFVKTLHKSERKLIQQLRLAGHCGLLLFQVEFAVTEIQEDNVLHRRVTELNIVVDGVEFKDFSAFVSRVEDTKDLLLFFRTLRTFSERCEDRRQTFQHFQEKYPDVVNLPEGCRSEIMIIRSPQLPGISMTLFWKIHVSKEGVVKPLLDLLLKMPDQALELDTKKVMEKASDYFQSLLQLLGVEASIEGLIRTVCS | soluble |
| GMEVNQPDIVAQVQAAFVEYERALVENDIEAMNALFWHTPETVRYGIAEVQHGGEAIRAWRERCEPVPKSRKLHRTVVTTFGTDFATVSTEFTSDATPLLGRQMQTWARLSPADGWKIVAAHVSLIAMP | soluble |
| MKISRETLHQLIENKLCQAGLKREHAATVAEVLVYADARGIHSHGAVRVEYYAERISKGGTNREPEFRLEETGPCSAILHADNAAGQVAAKMGMEHAIKTAQQNGVAVVGISRMGHSGAISYFVQQAARAGFIGISMCQSDPMVVPFGGAEIYYGTNPLAFAAPGEGDEILTFDMATTVQAWGKVLDARSRNMSIPDTWAVDKNGVPTTDPFAVHALLPAAGPKGYGLMMMIDVLSGVLLGLPFGRQVSSMYDDLHAGRNLGQLHIVINPNFFSSSELFRQHLSQTMRELNAITPAPGFNQVYYPGQDQDIKQRKAAVEGIEIVDDIYQYLISDALYNTSYETKNPFAQLEHHHHHH | soluble |
| MGSDKIHHHHHHMIITPDTLKALFTGFKKNFQDGLKMAESQYKEIATVIPSSTASNTYGWLGQWPAFREWVGDRVFQDMKAHGYAITNKHFESSVKVNRNDIEDDNVGIYAPMMTEMGRASAVHPDELVFALLKNAHATLCYDGQNFFDTDHPVYEKVDGTGQASTVSNIFAGSEAAWYLLDTTRALKPLIYQERKAKQFTAMTADTDEGVFMRNEYRYGVDGRCNVGLGFWQMAAKSQEKLDAAGFEKAYNAMVSLKGDGGRPLAIRPNVLLVPPALENAAKELVEGDRLANGAYNPNKGKAKVIVSPWLL | not soluble |
